What was measured:
[1] = target: T1, p40 peptide amino acids 1-17 (MLYLENNAQTQFSEPQY) (human); assay: epitope mapping, peptide ELISA and dot blot
T1 peptide: MLYLENNAQTQFSEPQY
Excerpt: (§1) In order to determine the peptide sequence of p40 that is recognized by anti-p40 antibodies such as BC28, epitope mapping may be conducted perhaps using two assays: direct ELISA and even dot blot. In an ELISA assay, the sensitivity and specificity of the anti-p40 [BC28] antibody may be determined by measuring the antibody titer at about 1:500 and about 1:1000. Overlapping peptides at a length of about 15 amino acids each, covering the human p40 protein sequence from perhaps 1 to 17 amino acids, may be used to determine a sequence of BC28 binding.

[2] = target: T2, p40 peptide amino acids 1-9 (MLYLENNAQ) (human); assay: epitope mapping, peptide ELISA and dot blot
T2 peptide: MLYLENNAQ
Excerpt: as §1

B1: mouse monoclonal anti-p40 antibody BC28 (antibody, mouse IgG1, V domains shown)
VH: GVKLVESGGGFVKPGGSLTLSCAASGFTFSIYAMSWVRQTPEKRLEWVTSISSGDDIFYPDNLKGQFTISRDNARNILYLQMSSLRSEDTAIYYCVRHGYNATDYWGQGTSVTVSS
VL: DVLMTQTPLSLPVSLGDQASISCRSSQSIVYSNGNTYLEWYLQKPGQSPKLLIYKVSNRFSGVPDRFSGSGSGTDFTLKISRVEAEDLGVYYCFQGSHVPFTFGSGTKLEIK
notes: also called p40 [BC28]; p40 (M)
**Q.** Does B1 bind [1]?
**A.** binds

**Q.** Does B1 bind [2]?
**A.** binds

Source: US20160009795A1 (BIOCARE MEDICAL, published 2016)
